Assay results: publication PMC7954794, “Protein context shapes the specificity of SH3 domain-mediated interactions in vivo” (Nature Communications, 2021)

What was measured:
Type in all cases: cell-based, Saccharomyces cerevisiae
[1] = system: Hua2; test: Deep mutational scanning of Abp1 SH3, Abp1-Hua2 DHFR-PCA (DMS score); settings: for hua2sc (frequencies scaled to the synonymous mutation distribution, DMS score) / HUA2_MTX2 (frequencies normalized to the reference condition): Abp1-Hua2 DHFR-PCA; for HUA2_MTX2 (frequencies normalized to the reference condition): MTX2; for hua2sc (DMS score): Frequencies scaled to the synonymous mutation distribution (DMS score), Hua2; for HUA2_MTX2: frequencies normalized to the reference condition, Abp1-Hua2, MTX2
Procedure, shortened: (§1)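 Yeast, genomic ABP1 SH3 single-codon mutant pool (58 positions, NNN) × DHFR F[3] prey; diploid selection, then 2 cycles PCA selection medium, 72 h, 30 °C each. Readout: Illumina sequencing of SH3 locus vs. unselected diploid reference (S2). Biological duplicates.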

[2] = system: Lsb3; test: Deep mutational scanning of Abp1 SH3, Abp1-Lsb3 DHFR-PCA (DMS score); settings: for lsb3sc (frequencies scaled to the synonymous mutation distribution, DMS score) / LSB3_MTX2 (frequencies normalized to the reference condition): Abp1-Lsb3 DHFR-PCA; for LSB3_MTX2 (frequencies normalized to the reference condition): MTX2; for lsb3sc (DMS score): Frequencies scaled to the synonymous mutation distribution (DMS score), Lsb3; for LSB3_MTX2: frequencies normalized to the reference condition, Abp1-Lsb3, MTX2
Procedure, shortened: as §1

[3] = system: Hua2 and Lsb3 (Abp1-Hua2 and Abp1-Lsb3 PPIs); test: Deep mutational scanning of Abp1 SH3, quadrant classification from Hua2 and Lsb3 DMS scores; settings: class from DMS scores for Hua2 and Lsb3
[4] = system: Hua2 and Lsb3; test: Quadrant classification of Abp1 SH3 variants from DMS scores (Abp1-Hua2 and Abp1-Lsb3 DHFR-PCA); settings: class by effect on Hua2 and Lsb3 PPIs (Dest. both / Dest. Hua2 / Dest. Lsb3 / Neutral)

Molecule	hua2sc (frequencies scaled to the synonymous mutation distribution, DMS score) [1]	HUA2_MTX2 (frequencies normalized to the reference condition) [1]	lsb3sc (frequencies scaled to the synonymous mutation distribution, DMS score) [2]	LSB3_MTX2 (frequencies normalized to the reference condition) [2]	quadrant [3]	hua2sc (DMS score) [1]	HUA2_MTX2 [1]	lsb3sc (DMS score) [2]	LSB3_MTX2 [2]	quadrant [4]
ABP1 V54V (protein, UniProt P15891 2-592, looked up, synonymous V54V) Actin-binding protein: ALEPIDYTTHSREIDAEYLKIVRGSDPDTTWLIISPNAKKEYEPESTGSSFHDFLQLFDETKVQYGLARVSPPGSDVEKIIIIGWCPDSAPLKTRASFAANFAAVANNLFKGYHVQVTARDEDDLDENELLMKISNAAGARYSIQTSSKQQGKASTPPVKKSFTPSKSPAPVSKKEPVKTPSPAPAAKISSRVNDNNDDDDWNEPELKERDFDQAPLKPNQSSYKPIGKIDLQKVIAEEKAKEDPRLVQKPTAAGSKIDPSSDIANLKNESKLKRDSEFNSFLGTTKPPSMTESSLKNDDDKVIKGFRNEKSPAQLWAERKAKQNSGNAETKAEAPKPEVPEDEPEGEPDVKDLKSKFEGLAASEKEEEEMENKFAPPPKKSEPTIISPKPFSKPQEPVKAEEAEQPKTDYKKIGNPLPGMHIEADNEEEPEENDDDWDDDEDEAAQPPLPSRNVASGAPVQKEEPEQEEIAPSLPSRNSIPAPKQEEAPEQAPEEEIEEEAEEAAPQLPSRSSAAPPPPPRRATPEKKPKENPWATAEYDYDAAEDNELTFVENDKIINIEFVDDDWWLGELEKDGSKGLFPSNYVSLGN	-0.1199	1.4929	-0.8004	0.6999	Neutral	–	–	–	–	–
ABP1 N58N (protein, UniProt P15891 2-592, looked up, synonymous codon change N58N) Actin-binding protein: ALEPIDYTTHSREIDAEYLKIVRGSDPDTTWLIISPNAKKEYEPESTGSSFHDFLQLFDETKVQYGLARVSPPGSDVEKIIIIGWCPDSAPLKTRASFAANFAAVANNLFKGYHVQVTARDEDDLDENELLMKISNAAGARYSIQTSSKQQGKASTPPVKKSFTPSKSPAPVSKKEPVKTPSPAPAAKISSRVNDNNDDDDWNEPELKERDFDQAPLKPNQSSYKPIGKIDLQKVIAEEKAKEDPRLVQKPTAAGSKIDPSSDIANLKNESKLKRDSEFNSFLGTTKPPSMTESSLKNDDDKVIKGFRNEKSPAQLWAERKAKQNSGNAETKAEAPKPEVPEDEPEGEPDVKDLKSKFEGLAASEKEEEEMENKFAPPPKKSEPTIISPKPFSKPQEPVKAEEAEQPKTDYKKIGNPLPGMHIEADNEEEPEENDDDWDDDEDEAAQPPLPSRNVASGAPVQKEEPEQEEIAPSLPSRNSIPAPKQEEAPEQAPEEEIEEEAEEAAPQLPSRSSAAPPPPPRRATPEKKPKENPWATAEYDYDAAEDNELTFVENDKIINIEFVDDDWWLGELEKDGSKGLFPSNYVSLGN	-0.8159	0.7969	-0.6649	0.8354	Neutral	–	–	–	–	–
ABP1 G57G (protein, UniProt P15891 2-592, looked up, synonymous G57G codon change in SH3 domain) Actin-binding protein: ALEPIDYTTHSREIDAEYLKIVRGSDPDTTWLIISPNAKKEYEPESTGSSFHDFLQLFDETKVQYGLARVSPPGSDVEKIIIIGWCPDSAPLKTRASFAANFAAVANNLFKGYHVQVTARDEDDLDENELLMKISNAAGARYSIQTSSKQQGKASTPPVKKSFTPSKSPAPVSKKEPVKTPSPAPAAKISSRVNDNNDDDDWNEPELKERDFDQAPLKPNQSSYKPIGKIDLQKVIAEEKAKEDPRLVQKPTAAGSKIDPSSDIANLKNESKLKRDSEFNSFLGTTKPPSMTESSLKNDDDKVIKGFRNEKSPAQLWAERKAKQNSGNAETKAEAPKPEVPEDEPEGEPDVKDLKSKFEGLAASEKEEEEMENKFAPPPKKSEPTIISPKPFSKPQEPVKAEEAEQPKTDYKKIGNPLPGMHIEADNEEEPEENDDDWDDDEDEAAQPPLPSRNVASGAPVQKEEPEQEEIAPSLPSRNSIPAPKQEEAPEQAPEEEIEEEAEEAAPQLPSRSSAAPPPPPRRATPEKKPKENPWATAEYDYDAAEDNELTFVENDKIINIEFVDDDWWLGELEKDGSKGLFPSNYVSLGN	-0.4468	1.166	-0.3559	1.1444	Neutral	–	–	–	–	–
ABP1 S55S (protein, UniProt P15891 2-592, looked up, synonymous codon change S55S) Actin-binding protein: ALEPIDYTTHSREIDAEYLKIVRGSDPDTTWLIISPNAKKEYEPESTGSSFHDFLQLFDETKVQYGLARVSPPGSDVEKIIIIGWCPDSAPLKTRASFAANFAAVANNLFKGYHVQVTARDEDDLDENELLMKISNAAGARYSIQTSSKQQGKASTPPVKKSFTPSKSPAPVSKKEPVKTPSPAPAAKISSRVNDNNDDDDWNEPELKERDFDQAPLKPNQSSYKPIGKIDLQKVIAEEKAKEDPRLVQKPTAAGSKIDPSSDIANLKNESKLKRDSEFNSFLGTTKPPSMTESSLKNDDDKVIKGFRNEKSPAQLWAERKAKQNSGNAETKAEAPKPEVPEDEPEGEPDVKDLKSKFEGLAASEKEEEEMENKFAPPPKKSEPTIISPKPFSKPQEPVKAEEAEQPKTDYKKIGNPLPGMHIEADNEEEPEENDDDWDDDEDEAAQPPLPSRNVASGAPVQKEEPEQEEIAPSLPSRNSIPAPKQEEAPEQAPEEEIEEEAEEAAPQLPSRSSAAPPPPPRRATPEKKPKENPWATAEYDYDAAEDNELTFVENDKIINIEFVDDDWWLGELEKDGSKGLFPSNYVSLGN	-0.05585	1.557	0.2461	1.746	Neutral	–	–	–	–	–
ABP1 E16E (protein, UniProt P15891 2-592, looked up, synonymous codon change E16E) Actin-binding protein: ALEPIDYTTHSREIDAEYLKIVRGSDPDTTWLIISPNAKKEYEPESTGSSFHDFLQLFDETKVQYGLARVSPPGSDVEKIIIIGWCPDSAPLKTRASFAANFAAVANNLFKGYHVQVTARDEDDLDENELLMKISNAAGARYSIQTSSKQQGKASTPPVKKSFTPSKSPAPVSKKEPVKTPSPAPAAKISSRVNDNNDDDDWNEPELKERDFDQAPLKPNQSSYKPIGKIDLQKVIAEEKAKEDPRLVQKPTAAGSKIDPSSDIANLKNESKLKRDSEFNSFLGTTKPPSMTESSLKNDDDKVIKGFRNEKSPAQLWAERKAKQNSGNAETKAEAPKPEVPEDEPEGEPDVKDLKSKFEGLAASEKEEEEMENKFAPPPKKSEPTIISPKPFSKPQEPVKAEEAEQPKTDYKKIGNPLPGMHIEADNEEEPEENDDDWDDDEDEAAQPPLPSRNVASGAPVQKEEPEQEEIAPSLPSRNSIPAPKQEEAPEQAPEEEIEEEAEEAAPQLPSRSSAAPPPPPRRATPEKKPKENPWATAEYDYDAAEDNELTFVENDKIINIEFVDDDWWLGELEKDGSKGLFPSNYVSLGN	–	–	–	–	–	0.3666	1.979	0.1832	1.684	Neutral
ABP1 N15N (protein, UniProt P15891 2-592, looked up, synonymous codon change N15N) Actin-binding protein: ALEPIDYTTHSREIDAEYLKIVRGSDPDTTWLIISPNAKKEYEPESTGSSFHDFLQLFDETKVQYGLARVSPPGSDVEKIIIIGWCPDSAPLKTRASFAANFAAVANNLFKGYHVQVTARDEDDLDENELLMKISNAAGARYSIQTSSKQQGKASTPPVKKSFTPSKSPAPVSKKEPVKTPSPAPAAKISSRVNDNNDDDDWNEPELKERDFDQAPLKPNQSSYKPIGKIDLQKVIAEEKAKEDPRLVQKPTAAGSKIDPSSDIANLKNESKLKRDSEFNSFLGTTKPPSMTESSLKNDDDKVIKGFRNEKSPAQLWAERKAKQNSGNAETKAEAPKPEVPEDEPEGEPDVKDLKSKFEGLAASEKEEEEMENKFAPPPKKSEPTIISPKPFSKPQEPVKAEEAEQPKTDYKKIGNPLPGMHIEADNEEEPEENDDDWDDDEDEAAQPPLPSRNVASGAPVQKEEPEQEEIAPSLPSRNSIPAPKQEEAPEQAPEEEIEEEAEEAAPQLPSRSSAAPPPPPRRATPEKKPKENPWATAEYDYDAAEDNELTFVENDKIINIEFVDDDWWLGELEKDGSKGLFPSNYVSLGN	–	–	–	–	–	-0.2193	1.393	0.1386	1.639	Neutral
ABP1 L17L (protein, UniProt P15891 2-592, looked up, synonymous codon change L17L in SH3) Actin-binding protein: ALEPIDYTTHSREIDAEYLKIVRGSDPDTTWLIISPNAKKEYEPESTGSSFHDFLQLFDETKVQYGLARVSPPGSDVEKIIIIGWCPDSAPLKTRASFAANFAAVANNLFKGYHVQVTARDEDDLDENELLMKISNAAGARYSIQTSSKQQGKASTPPVKKSFTPSKSPAPVSKKEPVKTPSPAPAAKISSRVNDNNDDDDWNEPELKERDFDQAPLKPNQSSYKPIGKIDLQKVIAEEKAKEDPRLVQKPTAAGSKIDPSSDIANLKNESKLKRDSEFNSFLGTTKPPSMTESSLKNDDDKVIKGFRNEKSPAQLWAERKAKQNSGNAETKAEAPKPEVPEDEPEGEPDVKDLKSKFEGLAASEKEEEEMENKFAPPPKKSEPTIISPKPFSKPQEPVKAEEAEQPKTDYKKIGNPLPGMHIEADNEEEPEENDDDWDDDEDEAAQPPLPSRNVASGAPVQKEEPEQEEIAPSLPSRNSIPAPKQEEAPEQAPEEEIEEEAEEAAPQLPSRSSAAPPPPPRRATPEKKPKENPWATAEYDYDAAEDNELTFVENDKIINIEFVDDDWWLGELEKDGSKGLFPSNYVSLGN	–	–	–	–	–	-0.5458	1.067	-0.4377	1.063	Neutral
